Laboratory results taken from US20160046707A1.

Experiments:
[1] = molecular target: recombinant human CCL20 (R&D Systems, #360-MP-025/CF) (human) (UniProt P78556); assay: cell-based or functional assay
[2] = molecular target: recombinant human CCL20 (R&D Systems, #360-MP-025/CF) (human) (UniProt P78556); assay: SPR (Biacore): antibody captured on anti-human Fc, 100 nM chemokine injected; ratio = chemokine binding level over antibody capture level
[3] = molecular target: recombinant human CCL20 (R&D Systems, #360-MP-025/CF) (human) (UniProt P78556); assay: SPR (Biacore), antibody captured by anti-human Fc, human CCL20 injected (monovalent format), 1:1 Langmuir, average of two experiments

Sequence of recombinant human CCL20 (R&D Systems, #360-MP-025/CF) (human) (P78556 other isoform, or with tags, fused parts or gaps limits assumed): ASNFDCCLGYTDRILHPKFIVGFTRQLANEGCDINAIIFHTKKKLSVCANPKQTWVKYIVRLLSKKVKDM

B1: mouse anti-human CCL20 monoclonal antibody 36F7C10 (antibody, V domains shown)
VH: QVQLQQPGAELVKPGASVKMSCKASGYTFTNYWMHWVKQRPGQGLEWIGVIDPSDSYTTYNQKFKGKATLTVDTSSSTAYMQLSSLTSEDSAVYYCTRGNYGVDYAMDYWGQGTSVTVSS
VL: DIQMTQSPASLSASVGETVTITCGASENIYGALNWYQRKQGKSPQLLIYGATNLADGMSSRFSGSGSGRQYSLKISSLHPDDVATYYCQNVLITPYTFGGGTKLEIK
IC50, chemotaxis of human CCR6-transduced B300.19 cells toward 10 nM human CCL20 [1]: 1.7 nM | IC90, chemotaxis of human CCR6-transduced B300.19 cells toward 10 nM human CCL20 [1]: 3.94 nM | IC95, chemotaxis of human CCR6-transduced B300.19 cells toward 10 nM human CCL20 [1]: 7.68 nM

B2: chimeric 36F7C10 antibody (36F7C10-hFc) (antibody, V domains shown)
VH: QVQLQQPGAELVKPGASVKMSCKASGYTFTNYWMHWVKQRPGQGLEWIGVIDPSDSYTTYNQKFKGKATLTVDTSSSTAYMQLSSLTSEDSAVYYCTRGNYGVDYAMDYWGQGTSVTVSS
VL: DIQMTQSPASLSASVGETVTITCGASENIYGALNWYQRKQGKSPQLLIYGATNLADGMSSRFSGSGSGRQYSLKISSLHPDDVATYYCQNVLITPYTFGGGTKLEIK
IC50, chemotaxis of human CCR6-transduced B300.19 cells toward 10 nM human CCL20 [1]: 1.44 nM | IC90, chemotaxis of human CCR6-transduced B300.19 cells toward 10 nM human CCL20 [1]: 3.51 nM | IC95, chemotaxis of human CCR6-transduced B300.19 cells toward 10 nM human CCL20 [1]: 5.48 nM | ReqCk/ReqAb ratio [2]: 0.153

B3: humanized anti-human CCL20 antibody 36LK3/36HC2 (antibody, human IgG1, kappa, V domains shown)
VH: QVQLVQSGAEVKKPGASVKVSCKASGYTFTNYWMHWVRQAPGQGLEWMGVIDPSDSYTTYAQKFQGRVTMTVDTSTSTVYMELSSLRSEDTAVYYCARGNYGVDYAMDYWGQGTLVTVSS
VL: DIQMTQSPSSLSASVGDRVTITCGASENIYGALNWYQRKPGKAPKLLIYGATNLADGVPSRFSGSGSGRDYTLTISSLQPEDFATYYCQNVLITPYTFGQGTKLEIKR
IC50, chemotaxis assay, Assay-1 [1]: 0.65 nM | IC50, chemotaxis assay, Assay-2 [1]: 1.09 nM | IC50, chemotaxis assay, Assay-3 [1]: 1.3 nM | IC50, chemotaxis assay, Average [1]: 1.01 nM | IC90, chemotaxis assay, Assay-1 [1]: 3.55 nM | IC90, chemotaxis assay, Assay-2 [1]: 3.35 nM | IC90, chemotaxis assay, Assay-3 [1]: 6.79 nM | IC90, chemotaxis assay, Average [1]: 4.56 nM | IC95, chemotaxis assay, Assay-1 [1]: 7.59 nM | IC95, chemotaxis assay, Assay-2 [1]: 5.41 nM | IC95, chemotaxis assay, Assay-3 [1]: 13.9 nM | IC95, chemotaxis assay, Average [1]: 8.97 nM | ReqCk/ReqAb ratio [2]: 0.143 | Kd [3]: 0.07 nM | koff [3]: 0.00117 s⁻¹ | kon [3]: 1.66e+07 M⁻¹ s⁻¹

B4: humanized anti-human CCL20 antibody 36LC3/36HC2 (antibody, human IgG1, kappa, V domains shown)
VH: QVQLVQSGAEVKKPGASVKVSCKASGYTFTNYWMHWVRQAPGQGLEWMGVIDPSDSYTTYAQKFQGRVTMTVDTSTSTVYMELSSLRSEDTAVYYCARGNYGVDYAMDYWGQGTLVTVSS
VL: DIQMTQSPSSLSASVGDRVTITCRASENIYGALNWYQQKPGKAPKLLIYGATNLADGVPSRFSGSGSGRQYSLTISSLQPEDFATYYCQNVLITPYTFGGGTKLEIKR
IC50, chemotaxis assay, Assay-1 [1]: 0.9 nM | IC50, chemotaxis assay, Assay-2 [1]: 1.26 nM | IC50, chemotaxis assay, Assay-3 [1]: 1.2 nM | IC50, chemotaxis assay, Average [1]: 1.12 nM | IC90, chemotaxis assay, Assay-1 [1]: 4.64 nM | IC90, chemotaxis assay, Assay-2 [1]: 5.82 nM | IC90, chemotaxis assay, Assay-3 [1]: 5.3 nM | IC90, chemotaxis assay, Average [1]: 5.25 nM | IC95, chemotaxis assay, Assay-1 [1]: 11.8 nM | IC95, chemotaxis assay, Assay-2 [1]: > 66.8 nM | IC95, chemotaxis assay, Assay-3 [1]: 10.3 nM | ReqCk/ReqAb ratio [2]: 0.156 | Kd [3]: 0.044 nM | koff [3]: 0.00061 s⁻¹ | kon [3]: 1.45e+07 M⁻¹ s⁻¹
